Paper PMC2734569, “Functional mapping of the fission yeast DNA polymerase δ B-subunit Cdc1 by site-directed and random pentapeptide insertion mutagenesis” (BMC Molecular Biology, 2009)
Residue numbers refer to the chain shown, from its start.

How the values were obtained:
Assay in all cases: two-hybrid; LexA-Cdc1 bait (pBTM116 or pBTM116BN) with Gal4 activation domain-Cdc27 prey (pGAD2F-Cdc27) in S. cerevisiae CTY10-5d; ONPG liquid culture beta-galactosidase assay, mean of triplicates, as percent of wild-type Cdc1
Settings in all cases: partners not purified
Cdc1-J16 = target: T1, Cdc1-J16 (Schizosaccharomyces pombe, UniProt P87324 1-462, Val-GlyGlyThrProVal-Asp)
T1 construct: Cdc1, S. pombe, with a pentapeptide inserted after residue 160; source: yeast two-hybrid fusion, in S. cerevisiae CTY10-5d
T1 sequence (looked up): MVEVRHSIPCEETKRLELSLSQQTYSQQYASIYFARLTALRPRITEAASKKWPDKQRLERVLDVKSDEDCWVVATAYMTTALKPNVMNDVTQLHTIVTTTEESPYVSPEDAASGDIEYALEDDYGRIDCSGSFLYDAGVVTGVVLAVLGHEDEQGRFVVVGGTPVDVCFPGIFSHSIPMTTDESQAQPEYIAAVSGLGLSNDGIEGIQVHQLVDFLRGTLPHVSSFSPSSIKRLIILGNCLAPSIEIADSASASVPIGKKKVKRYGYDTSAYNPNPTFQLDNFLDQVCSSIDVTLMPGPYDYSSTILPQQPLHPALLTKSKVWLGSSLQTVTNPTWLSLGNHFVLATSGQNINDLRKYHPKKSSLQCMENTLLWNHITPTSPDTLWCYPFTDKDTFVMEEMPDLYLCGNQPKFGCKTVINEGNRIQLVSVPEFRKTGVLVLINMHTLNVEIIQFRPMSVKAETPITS

Cdc1-A4 = target: T2, Cdc1-A4 (Schizosaccharomyces pombe, UniProt P87324 1-462, Pro303Ala)
T2 construct: Cdc1, S. pombe, point mutant; source: yeast two-hybrid fusion, in S. cerevisiae CTY10-5d
T2 sequence (looked up): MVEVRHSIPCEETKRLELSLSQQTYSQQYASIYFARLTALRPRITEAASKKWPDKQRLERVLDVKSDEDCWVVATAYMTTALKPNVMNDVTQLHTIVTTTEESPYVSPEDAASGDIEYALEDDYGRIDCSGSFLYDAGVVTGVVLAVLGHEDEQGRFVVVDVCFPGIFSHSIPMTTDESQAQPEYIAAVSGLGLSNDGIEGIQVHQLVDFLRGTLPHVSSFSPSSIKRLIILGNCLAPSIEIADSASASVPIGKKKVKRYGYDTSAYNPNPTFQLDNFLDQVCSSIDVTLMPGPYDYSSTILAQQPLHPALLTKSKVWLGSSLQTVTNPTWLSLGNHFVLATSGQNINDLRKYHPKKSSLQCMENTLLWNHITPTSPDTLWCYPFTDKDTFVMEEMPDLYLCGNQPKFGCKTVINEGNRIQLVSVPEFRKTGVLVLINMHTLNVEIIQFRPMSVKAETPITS

Cdc1-A8 = target: T3, Cdc1-A8 (Schizosaccharomyces pombe, UniProt P87324 1-462, Pro374Ala)
T3 construct: Cdc1, S. pombe, point mutant; source: yeast two-hybrid fusion, in S. cerevisiae CTY10-5d
T3 sequence (looked up): T2 sequence (looked up) with A303P, P374A

Cdc1-E4 = target: T4, Cdc1-E4 (Schizosaccharomyces pombe, UniProt P87324 1-462, Cys-GlyValProProCys-Glu)
T4 construct: Cdc1, S. pombe, with a pentapeptide inserted after residue 10; source: yeast two-hybrid fusion, in S. cerevisiae CTY10-5d
T4 sequence (looked up): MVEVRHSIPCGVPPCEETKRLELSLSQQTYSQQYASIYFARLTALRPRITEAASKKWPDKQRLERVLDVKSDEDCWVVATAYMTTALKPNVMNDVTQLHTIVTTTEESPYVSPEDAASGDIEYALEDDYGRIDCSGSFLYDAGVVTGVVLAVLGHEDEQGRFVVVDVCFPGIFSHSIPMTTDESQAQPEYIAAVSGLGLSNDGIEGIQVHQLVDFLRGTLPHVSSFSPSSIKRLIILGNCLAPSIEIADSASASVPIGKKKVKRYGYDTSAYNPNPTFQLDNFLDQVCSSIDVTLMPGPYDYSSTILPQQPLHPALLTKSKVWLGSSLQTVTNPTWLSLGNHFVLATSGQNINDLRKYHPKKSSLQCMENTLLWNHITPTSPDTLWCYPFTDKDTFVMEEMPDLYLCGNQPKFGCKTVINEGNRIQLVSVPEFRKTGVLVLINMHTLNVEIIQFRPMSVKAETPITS

- two-hybrid beta-galactosidase activity, % of wild-type Cdc1 (Cdc1-J16): < 1%
- two-hybrid beta-galactosidase activity, % of wild-type Cdc1 (Cdc1-A4): 31%
- two-hybrid beta-galactosidase activity, % of wild-type Cdc1 (Cdc1-A8): 8%
- two-hybrid beta-galactosidase activity, % of wild-type Cdc1 (Cdc1-E4): 62%
B1: Cdc27 (fission yeast DNA polymerase delta C-subunit) (natural protein, Schizosaccharomyces pombe, UniProt P30261 1-372, looked up)
chain: MEEWRNFLDIKVINESSLVTVDNLSLQLDISSEKAQEYLNMFYQGNDFLYPIYLIHGQPIDDEINLEIDEESQPISNFPVLQYILCDKSSLQEKQSRLKSGYKTVIFALSSAPLSDFDELLPAVYEIREKDVLYKKEDADKYGFIFNENSVPRVLKKAPSTHSPQLSVPSKTSTIDKTDTRSTEKTKGKDIFSNARNQKGNSSRKNKKAPLENHKEKEPLLPKEEKLSEQAKRERDDLKNIMQLEDESVSTTSVHDSEDDNLDSNNFQLEIGTEAKSAAPDEPQEIIKSVSGGKRRGKRKVKKYATTKDEEGFLVTKEEEVWESFSEDENISTGTSNVVRNKPTTVNIATKKKNTAQSKPQQKSIMSFFGKK
notes: DNA polymerase delta C-subunit Cdc27, S. pombe; prey plasmid pGAD2F-Cdc27; also called pGAD2F-Cdc27; source: yeast two-hybrid fusion, in S. cerevisiae CTY10-5d
